Measurements reported in publication PMC3887218.

Legend:
[1] = biological target: K18* (four-repeat construct K18 of human Tau with Cys-291 and Cys-322 replaced by alanine and Ile-260 replaced by cysteine) (human); assay: SDS-PAGE and Western blot of sequential detergent extracts; SH-SY5Y cells incubated 8 h with 1 μM K18*, trypsin-washed, lysed; Triton and sarkosyl fractions; NuPAGE 4-12% BisTris gel, anti-human Tau antibody A0024
[2] = fluorescence lifetime imaging (TCSPC); in vitro, 4:1 Tau:heparin (Mr 3000), 24 h, 37 °C; K18*: 1 μM, 10% labelled with Alexa Fluor 488, in cell culture medium (3664 ± 25 ps before); hTau40*: 20 μM, 1% labelled, in BES buffer pH 7.4 (3657 ± 18 ps before); a drop of the lifetime reports …; conditions: other: fluorescence lifetime imaging (TCSPC)
[3] = fluorescence lifetime imaging (TCSPC); in vitro, pH 4.7, no heparin, 24 h; K18*: 1 μM, 10% labelled, cell culture medium (3824 ± 22 ps soluble); hTau40*: 10 μM, 1% labelled, BES buffer (3765 ± 53 ps soluble); conditions: other: fluorescence lifetime imaging (TCSPC)

Substance | stoichiometry N [1] | fluorescence lifetime of the Alexa Fluor 488 label, aggregated with heparin [2] [ps when aggregated] | fluorescence lifetime of the Alexa Fluor 488 label, aggregated at pH 4.7 [3] [ps]
K18* (four-repeat construct K18 of human Tau with Cys-291 and Cys-322 replaced by alanine and Ile-260 replaced by cysteine) (domain or fragment) | 2 | – | –
K18* (four-repeat construct K18 of human Tau with Cys-291 and Cys-322 replaced by alanine and Ile-260 replaced by cysteine) | – | 3262 ± 71 | 3268 ± 31
